# Measurements from patent publication US20200079833A1 (AstraZeneca / MedImmune, published 2020).
# Starred links: 1 amine or outer side, 2 acyl side, 3 side chain; linkers in the order of their positions; H or OH if unused. Non-standard residues stand in square brackets, D forms with d. Groups on a side chain read outwards from the residue. Primed or numbered codes have the meaning given here. No end group written: not given here. *: point of attachment. γGlu = O=C(O)[C@H](CCC(=O)[*:2])N[*:1]; Stearoyl = CCCCCCCCCCCCCCCCCC(=O)*; αMeF = C[C@](N)(Cc1ccccc1)C(=O)O; αMeK = C[C@](N)(CCCCN)C(=O)O; αMeS = C[C@](N)(CO)C(=O)O; PEG2′ = not defined here; Aib = CC(C)(N)C(=O)O
# B1: SEQ ID NO 17 (peptide)
# peptide: H[Aib]EGS[αMeF]TSDV[αMeS]S[αMeF]LEGEAA[αMeK]E[αMeF]IA[αMeF]VV[αMeK]GG-NH2
# modifications: N-terminus assumed
# SMILES: CC[C@H](C)[C@H](NC(=O)[C@](C)(Cc1ccccc1)NC(=O)[C@H](CCC(=O)O)NC(=O)[C@](C)(CCCCN)NC(=O)[C@H](C)NC(=O)[C@H](C)NC(=O)[C@H](CCC(=O)O)NC(=O)CNC(=O)[C@H](CCC(=O)O)NC(=O)[C@H](CC(C)C)NC(=O)[C@](C)(Cc1ccccc1)NC(=O)[C@H](CO)NC(=O)[C@](C)(CO)NC(=O)[C@@H](NC(=O)[C@H](CC(=O)O)NC(=O)[C@H](CO)NC(=O)[C@@H](NC(=O)[C@](C)(Cc1ccccc1)NC(=O)[C@H](CO)NC(=O)CNC(=O)[C@H](CCC(=O)O)NC(=O)C(C)(C)NC(=O)[C@@H](N)Cc1c[nH]cn1)[C@@H](C)O)C(C)C)C(=O)N[C@@H](C)C(=O)N[C@@](C)(Cc1ccccc1)C(=O)N[C@H](C(=O)N[C@H](C(=O)N[C@@](C)(CCCCN)C(=O)NCC(=O)NCC(N)=O)C(C)C)C(C)C
# B2: SEQ ID NO 54 (peptide)
# peptide: H[Aib]EGS[αMeF]TSDV[αMeS]S[αMeF]LEGEAAK([PEG2′-PEG2′-PEG2′-Stearoyl])EFIA[αMeF]VV[αMeK]GG-NH2
# B3: SEQ ID NO 48 (peptide)
# peptide: H[Aib]EGS[αMeF]TSDV[αMeS]S[αMeF]LEGEAAK([PEG2′-PEG2′-γGlu-Stearoyl])EFIA[αMeF]VV[αMeK]GG-NH2
# B4: SEQ ID NO 46 (peptide)
# peptide: H[Aib]EGS[αMeF]TSDVSS[αMeF]LEGEAAK([PEG2′-PEG2′-γGlu-Stearoyl])E[αMeF]IA[αMeF]VV[αMeK]GG-NH2
# B5: SEQ ID NO 51 (peptide)
# peptide: H[Aib]EGSFTSDV[αMeS]S[αMeF]LEGEAAK([PEG2′-PEG2′-PEG2′-Stearoyl])E[αMeF]IA[αMeF]VV[αMeK]GG-NH2
# B6: SEQ ID NO 42 (peptide)
# peptide: H[Aib]EGS[αMeF]TSDV[αMeS]S[αMeF]LEGEAAEE[αMeF]IA[αMeF]VV[αMeK]GG-NH2
# modifications: N-terminus assumed
# SMILES: CC[C@H](C)[C@H](NC(=O)[C@](C)(Cc1ccccc1)NC(=O)[C@H](CCC(=O)O)NC(=O)[C@H](CCC(=O)O)NC(=O)[C@H](C)NC(=O)[C@H](C)NC(=O)[C@H](CCC(=O)O)NC(=O)CNC(=O)[C@H](CCC(=O)O)NC(=O)[C@H](CC(C)C)NC(=O)[C@](C)(Cc1ccccc1)NC(=O)[C@H](CO)NC(=O)[C@](C)(CO)NC(=O)[C@@H](NC(=O)[C@H](CC(=O)O)NC(=O)[C@H](CO)NC(=O)[C@@H](NC(=O)[C@](C)(Cc1ccccc1)NC(=O)[C@H](CO)NC(=O)CNC(=O)[C@H](CCC(=O)O)NC(=O)C(C)(C)NC(=O)[C@@H](N)Cc1c[nH]cn1)[C@@H](C)O)C(C)C)C(=O)N[C@@H](C)C(=O)N[C@@](C)(Cc1ccccc1)C(=O)N[C@H](C(=O)N[C@H](C(=O)N[C@@](C)(CCCCN)C(=O)NCC(=O)NCC(N)=O)C(C)C)C(C)C
# B7: SEQ ID NO 3 (peptide)
# peptide: H[Aib]EGS[αMeF]TSDV[αMeS]S[αMeF]LEGEAAK([PEG2′-PEG2′-γGlu-Stearoyl])E[αMeF]IA[αMeF]VV[αMeK]GG-NH2
# B8: SEQ ID NO 56 (peptide)
# peptide: H[Aib]EGS[αMeF]TSDV[αMeS]S[αMeF]LEGEAAK([PEG2′-PEG2′-PEG2′-Stearoyl])E[αMeF]IA[αMeF]VVKGG-NH2
# B9: SEQ ID NO 33 (peptide)
# peptide: H[Aib]EGS[αMeF]TSDV[αMeS]S[αMeF]LEGEAAK([PEG2′-PEG2′-γGlu-Stearoyl])E[αMeF]IA[αMeF]VV[αMeK]GG-NH2
# B10: SEQ ID NO 44 (peptide)
# peptide: H[Aib]EGS[αMeF]TSDV[αMeS]S[αMeF]LEGEAAEE[αMeF]IA[αMeF]VVEGG-NH2
# modifications: N-terminus assumed
# SMILES: CC[C@H](C)[C@H](NC(=O)[C@](C)(Cc1ccccc1)NC(=O)[C@H](CCC(=O)O)NC(=O)[C@H](CCC(=O)O)NC(=O)[C@H](C)NC(=O)[C@H](C)NC(=O)[C@H](CCC(=O)O)NC(=O)CNC(=O)[C@H](CCC(=O)O)NC(=O)[C@H](CC(C)C)NC(=O)[C@](C)(Cc1ccccc1)NC(=O)[C@H](CO)NC(=O)[C@](C)(CO)NC(=O)[C@@H](NC(=O)[C@H](CC(=O)O)NC(=O)[C@H](CO)NC(=O)[C@@H](NC(=O)[C@](C)(Cc1ccccc1)NC(=O)[C@H](CO)NC(=O)CNC(=O)[C@H](CCC(=O)O)NC(=O)C(C)(C)NC(=O)[C@@H](N)Cc1c[nH]cn1)[C@@H](C)O)C(C)C)C(=O)N[C@@H](C)C(=O)N[C@@](C)(Cc1ccccc1)C(=O)N[C@H](C(=O)N[C@H](C(=O)N[C@@H](CCC(=O)O)C(=O)NCC(=O)NCC(N)=O)C(C)C)C(C)C
# B11: SEQ ID NO 45 (peptide)
# peptide: H[Aib]EGSFTSDV[αMeS]S[αMeF]LEGEAAK([PEG2′-PEG2′-γGlu-Stearoyl])E[αMeF]IA[αMeF]VV[αMeK]GG-NH2
# B12: SEQ ID NO 47 (peptide)
# peptide: H[Aib]EGS[αMeF]TSDV[αMeS]SYLEGEAAK([PEG2′-PEG2′-γGlu-Stearoyl])E[αMeF]IA[αMeF]VV[αMeK]GG-NH2
# B13: SEQ ID NO 52 (peptide)
# peptide: H[Aib]EGS[αMeF]TSDVSS[αMeF]LEGEAAK([PEG2′-PEG2′-PEG2′-Stearoyl])E[αMeF]IA[αMeF]VV[αMeK]GG-NH2
# B14: SEQ ID NO 55 (peptide)
# peptide: H[Aib]EGS[αMeF]TSDV[αMeS]S[αMeF]LEGEAAK([PEG2′-PEG2′-PEG2′-Stearoyl])E[αMeF]IAWVV[αMeK]GG-NH2
# B15: SEQ ID NO 50 (peptide)
# peptide: H[Aib]EGS[αMeF]TSDV[αMeS]S[αMeF]LEGEAAK([PEG2′-PEG2′-γGlu-Stearoyl])E[αMeF]IA[αMeF]VVKGG-NH2
# B16: SEQ ID NO 53 (peptide)
# peptide: H[Aib]EGS[αMeF]TSDV[αMeS]SYLEGEAAK([PEG2′-PEG2′-PEG2′-Stearoyl])E[αMeF]IA[αMeF]VV[αMeK]GG-NH2
# B17: SEQ ID NO 49 (peptide)
# peptide: H[Aib]EGS[αMeF]TSDV[αMeS]S[αMeF]LEGEAAK([PEG2′-PEG2′-γGlu-Stearoyl])E[αMeF]IAWVV[αMeK]GG-NH2
# B18: SEQ ID NO 6 (peptide)
# peptide: HXEGTFTSDVSSYLEGQAAKEFIAWLVKGRK
# modifications: Aib2; K(ε-(PEG)2-(PEG)2-γE-Stearate) after R30; C-terminal amide
# B19: SEQ ID NO 43 (peptide)
# peptide: H[Aib]EGS[αMeF]TSDV[αMeS]S[αMeF]LEGEAA[αMeK]E[αMeF]IA[αMeF]VVEGG-NH2
# modifications: N-terminus assumed
# SMILES: CC[C@H](C)[C@H](NC(=O)[C@](C)(Cc1ccccc1)NC(=O)[C@H](CCC(=O)O)NC(=O)[C@](C)(CCCCN)NC(=O)[C@H](C)NC(=O)[C@H](C)NC(=O)[C@H](CCC(=O)O)NC(=O)CNC(=O)[C@H](CCC(=O)O)NC(=O)[C@H](CC(C)C)NC(=O)[C@](C)(Cc1ccccc1)NC(=O)[C@H](CO)NC(=O)[C@](C)(CO)NC(=O)[C@@H](NC(=O)[C@H](CC(=O)O)NC(=O)[C@H](CO)NC(=O)[C@@H](NC(=O)[C@](C)(Cc1ccccc1)NC(=O)[C@H](CO)NC(=O)CNC(=O)[C@H](CCC(=O)O)NC(=O)C(C)(C)NC(=O)[C@@H](N)Cc1c[nH]cn1)[C@@H](C)O)C(C)C)C(=O)N[C@@H](C)C(=O)N[C@@](C)(Cc1ccccc1)C(=O)N[C@H](C(=O)N[C@H](C(=O)N[C@@H](CCC(=O)O)C(=O)NCC(=O)NCC(N)=O)C(C)C)C(C)C
# Target: T1, GLP-1R (INS1e assay) (UniProt P32301 22-463, limits assumed)
# T1 sequence (looked up): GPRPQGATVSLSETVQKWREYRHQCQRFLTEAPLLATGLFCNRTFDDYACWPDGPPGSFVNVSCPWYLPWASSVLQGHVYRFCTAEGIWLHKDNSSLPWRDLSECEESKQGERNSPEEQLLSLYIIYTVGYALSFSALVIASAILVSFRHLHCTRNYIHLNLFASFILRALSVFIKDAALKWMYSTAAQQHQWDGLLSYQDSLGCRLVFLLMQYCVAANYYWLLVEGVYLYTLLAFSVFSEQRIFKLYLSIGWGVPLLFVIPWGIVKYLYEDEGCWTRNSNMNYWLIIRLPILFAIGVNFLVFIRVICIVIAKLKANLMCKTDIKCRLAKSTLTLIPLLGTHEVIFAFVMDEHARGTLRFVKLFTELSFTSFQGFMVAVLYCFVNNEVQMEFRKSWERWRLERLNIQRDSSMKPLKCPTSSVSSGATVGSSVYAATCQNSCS
# Assay: cell-based or functional assay
Binder,INS1e assay EC50 GLP-1 R n1 [pM],INS1e assay EC50 GLP-1 R n2 [pM],INS1e assay EC50 Mean pM GLP-1R [pM]
B1,5.1,7.87,6
B2,2.67,8.37,6
B3,729,871,800
B4,52600,83400,68000
B5,24.7,20.7,23
B6,207,167,187
B7,3590,3780,3680
B8,35.2,77,56
B9,3590,3780,3680
B10,475,435,455
B11,76100,113000,94600
B12,7130,12200,9660
B13,21.4,19.3,20
B14,12.5,10.1,11
B15,22100,42600,32400
B16,6.25,8.15,7
B17,9350,10700,10000
B18,104,139,122
B19,16,10.5,13
